How the values were obtained:
[1] = Isoelectric focusing on agarose gel; format: physicochemical; conditions: agarose IEF
Method: IEF gel electrophoresis was run on pre-cast agarose gels (85×100 mm). Two electrode wicks were wetted with 1M phosphoric acid (anolyte) and 1M sodium hydroxide (catholyte). Electrophoresis was at 5 watts for 5 min, then at 10 watts for 1 h until the voltage was constant at 1200 V. The gel was immediately fixed in 15% aqueous trichloroacetic acid, blotted and rinsed with water, dried overnight, stained by using Coomassie G-250, and destained.

[2] = Stability toward storage, freeze thawing and lyophilization; format: physicochemical; conditions: for activity retained: absence of excipient
Method: […] […] These lyase solutions were then divided into 3 equal aliquots, and one of each was subjected to either freeze thawing, lyophilization, or retained as a control in an ice bath. The activities of heparin lyases I-III were determined in the presence and absence of excipients after: 1) brief storage at 4° C.; 2) freezing at −70° C. and thawing; and 3) −70° C. freezing, lyophilization, and reconstituting with an equal volume of cold water.

[3] = cited from earlier work
[4] = Heparin lyase activity assay (change of absorbance at 232 nm), heparan sulfate as substrate; format: biochemical; conditions: final level of depolymerization, 24 h
Method: (§1) The spectrophotometer was adjusted to the optimum temperature of the particular lyase being assayed. […] A measured quantity of lyase was added, bringing the final volume to 400 μl and the cuvette was gently mixed. The microcuvette was then immediately returned to the spectrophotometer and the change of absorbance at 232 nm was measured at 10 seconds intervals over 3 min. […] The specific activity was then calculated by dividing the micromoles of product produced per minute by the milligrams of protein in the cuvette. […] G., and Linhardt, R. J. (1989) Carbohydr. Res. 190, 219-233. Protein concentration was measured by the Bradford assay, Bradford, M. M. (1976) Anal. Biochem. 72, 248-254, based on a bovine serum albumin standard curve. […] The activities of each lyase (I acting on heparin, II acting on both heparin and heparan sulfate, and III acting on heparan sulfate) were then determined at different pH values. The buffer giving optimum activity for each heparin lyase was selected by testing buffers with buffering capacity near the pH optima calculated in the previous experiments. These buffers were: Tris-HCl, sodium phosphate, HEPES, MOPS, TES, and BTP-CHl. […] The heparin lyase assay solutions were made by diluting enzyme in 50 mM sodium phosphate buffer adjusted to the appropriate pH as previously described. Heparin lyase activity was determined in each buffer. Activity was assayed both immediately after addition to each buffer and following incubation for 24 h at 37° C. The salt concentration for optimum activity was investigated. Sodium chloride, potassium chloride, and sodium and potassium acetate were used to differentiate between ionic strength and specific ion affects. […] The temperature was adjusted in a temperature-regulated spectrophotometer and equilibrated for 10 min before the assay was started. Michaelis-Menten constants were determined using the optimized conditions. The final absorbance value for total depolymerization was divided by 20 to find a value that represented 5% reaction completion. The purified lyase preparations were diluted so that 5% of total depolymerization would be reached only at the end of a 3-min assay. The reaction velocities at specific molar concentrations for each lyase and their substrates were used for kinetic analysis using EZ-FIT hyperbolic curve-fitting program of […]. (1988) Anal. Biochem. 174, 437-447). Substrate solutions were prepared from 50 mg/ml heparin and 40 mg/ml for heparan sulfate stock solutions. […] The amount of purified lyase used was sufficient for complete depolymerization of heparin or heparan sulfate substrates within 30 min. The initial rate of depolymerization of each polysaccharide was measured, the reaction was then continued for 24 h, and the final level of polysaccharide depolymerization was assessed by measuring the final absorbance at 232 nm and expressed as percent activity.

[5] = Heparin lyase activity: effect of divalent metals and added salt, substrate specificity (each lyase on its substrates); format: biochemical
Method: The spectrophotometer was adjusted to the optimum temperature of the particular lyase being assayed. A 700 μl quartz microcuvette containing 400 μg of substrate in 50 mM sodium phosphate buffer (containing 100 mM sodium chloride for heparin lyase I) was thermally equilibrated. A measured quantity of lyase was added, bringing the final volume to 400 μl and the cuvette was gently mixed. The microcuvette was then immediately returned to the spectrophotometer and the change of absorbance at 232 nm was measured at 10 seconds intervals over 3 min. The activity was measured from the change of absorbance/unit time using an extinction coefficient of 3800 M^−1 for products. The specific activity was then calculated by dividing the micromoles of product produced per minute by the milligrams of protein in the cuvette. The molecular weights used for heparin, heparan sulfate, and the chondroitin sulfates were 14,000, 20,000 and 25,000, respectively, Rice, K. G., and Linhardt, R. J. (1989) Carbohydr. Res. 190, 219-233. Protein concentration was measured by the Bradford assay, Bradford, M. M. (1976) Anal. Biochem. 72, 248-254, based on a bovine serum albumin standard curve.
BTP-HCl buffer (50 mM) was prepared containing either 10 mM calcium chloride, 10 μM or 1 mM copper (II) chloride, 10 μM and 1 mM mercury (II) chloride, and 1 mM zinc (II) chloride. Each solution was adjusted to the optimum pH for the lyase being tested, and the activity of the heparin lyases was measured in the presence and absence of divalent metals.
The salt concentration for optimum activity was investigated. Sodium chloride, potassium chloride, and sodium and potassium acetate were used to differentiate between ionic strength and specific ion affects. Added salt concentrations varied between 0 and 500 mM and were prepared in 50 mM sodium phosphate buffer after which the pH was adjusted to each enzyme's optimum and the heparin lyase activity was measured.
Each heparin lyase was added to a solution of complex polysaccharides (1 mg/ml) under optimized assay conditions, and the reaction was monitored at 232 nm for 30 min. The amount of purified lyase used was sufficient for complete depolymerization of heparin or heparan sulfate substrates within 30 min. The initial rate of depolymerization of each polysaccharide was measured, the reaction was then continued for 24 h, and the final level of polysaccharide depolymerization was assessed by measuring the final absorbance at 232 nm and expressed as percent activity.

[6] = Heparin lyase activity assay (change of absorbance at 232 nm), heparin as substrate; format: biochemical, porcine
Method: as §1

[7] = Temperature stability of lyase activity; format: physicochemical; conditions: 30° C., protein 650 ng/ml
Method: Lyase assay stock solutions were prepared in the appropriate buffer and placed in water baths at the following temperatures: heparin lyase I at 30° C., heparin lyase II at 35° C., and heparin lyase III at both 35° and 40° C. […]

[8] = Activity remaining after incubation in buffers for 24 h at 37° C.; format: physicochemical; conditions: each of six buffers
Method: The buffer giving optimum activity for each heparin lyase was selected by testing buffers with buffering capacity near the pH optima calculated in the previous experiments. These buffers were: Tris-HCl, sodium phosphate, HEPES, MOPS, TES, and BTP-CHl. Each buffer was prepared at 50 mM, and its pH was adjusted with hydrochloric acid or sodium hydroxide to 6.9 for heparin lyase II acting on heparin, 7.15 for heparin lyase I, 7.3 for heparin lyase II acting on heparan sulfate, and 7.6 for heparin lyase III. The heparin lyase assay solutions were made by diluting enzyme in 50 mM sodium phosphate buffer adjusted to the appropriate pH as previously described. Heparin lyase activity was determined in each buffer. Activity was assayed both immediately after addition to each buffer and following incubation for 24 h at 37° C.

B1: Heparin lyase I: heparin lyase I (heparinase, EC 4.2.2.7) purified to homogeneity from Flavobacterium heparinum (protein, UniProt Q05819 22-384, looked up)
Heparin lyase I: QQKKSGNIPYRVNVQADSAKQKAIIDNKWVAVGINKPYALQYDDKLRFNGKPSYRFELKAEDNSLEGYAAGETKGRTELSYSYATTNDFKKFPPSVYQNAQKLKTVYHYGKGICEQGSSRSYTFSVYIPSSFPDNATTIFAQWHGAPSRTLVATPEGEIKTLSIEEFLALYDRMIFKKNIAHDKVEKKDKDGKITYVAGKPNGWKVEQGGYPTLAFGFSKGYFYIKANSDRQWLTDKADRNNANPENSEVMKPYSSEYKTSTIAYKMPFAQFPKDCWITFDVAIDWTKYGKEANTILKPGKLDVMMTYTKNKKPQKAHIVNQQEILIGRNDDDGYYFKFGIYRVGNSTVPVTYNLSGYSETAR
[1]
  pI (isoelectric point): 9.1-9.2
[2]; after a single freeze-thawing
  activity retained: 45%
[2]; after freeze-drying
  activity retained: 25%
[2]; stored at 4° C.
  activity retained: 50%
[2]; addition of 2.0 mg/ml BSA
  retention of activity: greater than 85%
[2]; addition of 5% lactose
  retention of activity: 40-80%
[3]; Yang et al. (1985), Linker and co-workers, assay times up to 6 h
  pH optimum (reported): 6.5
[3]; literature
  Vmax (reported): 19.7 μmol/min/mg protein
[4]
  average number of sites acted at in the heparan sulfate polymer: 5 sites
[5]
  substrates acted on: act on both heparin and heparan sulfate
[5]; 10 μM mercury (II) chloride
  effect of mercury on activity: markedly reduced
[5]; 1 mM copper (II) chloride
  effect of copper on activity: markedly reduced
[5]; 1 mM mercury (II) chloride
  effect of mercury on activity: markedly reduced
[5]; 1 mM zinc (II) chloride
  effect of zinc on activity: slightly reduced
[5]; 10 mM calcium chloride, 50 mM BTP-HCl
  effect of calcium on activity (increase): 30%
[5]; increasing salt concentration, 0-500 mM
  effect of added salt on activity: increased activity
[6]; 0-500 mM salt in 50 mM sodium phosphate buffer
  added salt concentration (ionic strength) for optimum activity: 100 mM
[6]; final GPC-HPLC purification step, acting on heparin
  Unit/mg (specific activity): 130 Unit/mg
[6]; final level of depolymerization, 24 h
  average number of sites acted at in the heparin polymer: 7 sites
[6]; heparin, 50 mM buffer at optimum pH
  initial activity in six buffers (Tris-HCl, sodium phosphate, HEPES, MOPS, TES, BTP-HCl): reduced activity in MOPS, TES, and HEPES
[6]; heparin, 50 mM sodium phosphate at optimum pH, 15-55° C.
  temperature for maximum activity: 35 °C
[6]; heparin, I: 30° C., pH 7.15, 100 mM sodium chloride, II: 35° C., pH 7.3, value ± standard error, read-out: Km(app)
  Km: 17.8 ± 1.5 µM
[6]; heparin, optimized conditions, value ± standard error
  Vmax: 219 ± 3.48 μmol/min mg protein
[6]; on heparin
  pH optimum for activity: 7.15
[6]; purified lyase, toward heparin
  specific activity: 130 units/mg
[7]
  time in which 80% of activity was lost: 5 h
[8]
  activity after incubation, % of initial value: 1-20%

Source: patent USRE41461E1, “Purification, composition and specificity of Heparinase I, II, and III from Flavobacterium heparinum” (Massachusetts Institute of Technology, priority 1992, dated 2010)
